Laboratory results: patent US20100254992A1 (published 2010)

Experiments:
human Eotaxin 1 = human Eotaxin 1 (human, UniProt P51671 24-97); test: BioVeris solution equilibrium titration
Protocol: Solution Equilibrium Titration (SET) Method for KD Determination and Cross-Reactivity Studies Using BioVeris. Affinity determination in solution was basically performed as described in the literature (Friguet et al., 1985). In order to improve the sensitivity and accuracy of the SET method, it was transferred from classical ELISA to ECL based BioVeris technology (Haenel et al., 2005, accepted for publication in Analytical Biochemistry). 1 mg/ml goat-anti-human (Fab)₂ or goat-anti-mouse IgG, Fc fragment specific antibodies (Jackson Immuno Research) were labelled with BV-tag™ NHS-Ester (Bioveris Europe, Witney, Oxfordshire, UK) according to manufacturer's instructions. The experiments were carried out in polypropylene microtiter plates and PBS pH 7.4 with 0.5% BSA and 0.02% Tween 20 as assay buffer. Unlabeled antigen was diluted in 4ⁿ series: For human and cyno MCP-1 a concentration range of 10 pM to 40 nM and for cross-reactivity controls (Eotaxin and MCP-2) a concentration range of 40 pM to 160 nM was chosen. Wells without antigen were used to determine Smax values. After addition of 100 pM Fab or IgG (final concentration in 75 μL final volume), the mixture was incubated for 2 hours at RT. […]
Specificity Testing Using BioVeris. Beside the affinity also the specificity, especially the cross-reactivity to Eotaxin and MCP-2, was analyzed in solution equilibrium titration (SET) using BioVeris. […]

human MCP-3 = molecular target: T1, human MCP-3 (human, UniProt P80098 24-99); test: Biacore, IgG capture mode
T1 construct: also called CCL7
T1 sequence (P80098 24-99 limits assumed): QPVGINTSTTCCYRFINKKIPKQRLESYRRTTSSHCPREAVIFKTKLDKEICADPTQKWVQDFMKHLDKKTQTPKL

human Eotaxin 2 = molecular target: T2, human Eotaxin 2 (human, UniProt O00175 27-104, limits assumed); test: Biacore, IgG capture mode
T2 sequence (looked up): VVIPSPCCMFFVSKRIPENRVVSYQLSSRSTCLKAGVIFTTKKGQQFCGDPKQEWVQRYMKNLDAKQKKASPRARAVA

human MCP-4 = molecular target: T3, human MCP-4 (human, UniProt Q99616 24-98, limits assumed); test: Biacore, IgG capture mode
T3 construct: also called CCL13

human Eotaxin 3 = molecular target: T4, human Eotaxin 3 (human, UniProt Q9Y258 24-94); test: Biacore, IgG capture mode
T4 sequence (looked up): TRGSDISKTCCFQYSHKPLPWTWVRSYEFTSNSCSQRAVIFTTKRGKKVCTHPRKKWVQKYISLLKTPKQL

binding result (human Eotaxin 1): no binding (tested: 40 pM to 160 nM)
binding result (human MCP-3): no binding (tested: 100 nM)
binding result (human Eotaxin 2): no binding (tested: 100 nM)
binding result (human MCP-4): no binding (tested: 100 nM)
binding result (human Eotaxin 3): no binding (tested: 100 nM)
B1: MOR03790 IgG1 (antibody, V domains shown)
VH: QVELVQSGAEVKKPGSSVKVSCKASGGTFSSYGISWVRQAPGQGLEWMGGIIPIFGTANYAQKFQGRVTITADESTSTAYMELSSLRSEDTAVYYCARYDGIYGELDFWGQGTLVTVSS
VL: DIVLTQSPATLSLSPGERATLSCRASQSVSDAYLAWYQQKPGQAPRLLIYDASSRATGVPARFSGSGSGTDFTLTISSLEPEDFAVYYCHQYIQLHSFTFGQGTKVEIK
notes: Human IgG1; also called MOR3790 IgG1; MOR3790k IgG
